From patent US20240239893A1, “METHODS AND COMBINATIONS FOR THE TREATMENT OF CANCER USING IMMUNE CHECKPOINT INHIBITOR ANTIBODIES” (AstraZeneca AB, priority 2020, published 2024)

B1: tremelimumab: anti-CTLA-4 antibody; in Example 2 given as 750 mg monotherapy Q4W for seven doses then Q12W (T) (antibody)
VH: GVVQPGRSLRLSCAASGFTFSSYGMHWVRQAPGKGLEWVAVIWYDGSNKYYADSVKGRFTISRDNSKNTLYLQMNSLRAEDTAVYYCARDPRGATLYYYYYGMDVWGQGTTVTVSSASTKGPSVFPLAPCSRSTSESTAALGCLVKDYFPEPVTVSWNSGALTSGVH
VL: PSSLSASVGDRVTITCRASQSINSYLDWYQQKPGKAPKLLIYAASSLQSGVPSRFSGSGSGTDFTLTISSLQPEDFATYYCQQYYSTPFTFGPGTKVEIKRTVAAPSVFIFPPSDEQLKSGTASVVCLLNNFYPREAKV
modifications: heavy chain variable region; light chain variable region

Experiments:
[1] = system: advanced hepatocellular carcinoma (HCC); assay: Randomized open-label multi-center clinical study of durvalumab and tremelimumab (Example 2): efficacy (ORR, OS, PFS); type: in vivo, human patients; conditions: for ORR, % / Median (95% CI) OS, mo: Table 1, per study arm; for Median (95% CI) OS, mo: 95% CI given; for Median PFS (95% CI): patients with advanced HCC, Kaplan-Meier (FIG. 11)
Source text: Primary analysis of all tumor assessment-related endpoints was based on BICR assessments according to RECIST v1.1.
Evaluation of target lesions were classified as follows: • Complete Response—Disappearance of all target lesions. Any pathological lymph nodes (whether target or non-target) must have reduction in short axis to <10 mm (the sum may not be “0” if there are target nodes). • Partial Response—At least a 30% decrease in the sum of the diameters of target lesions, taking as reference the baseline sum diameters. • Progressive Disease—At least a 20% increase in the sum of diameters of target lesions, taking as reference the smallest sum on study (this includes the baseline sum if that is the smallest on study). […] (Note: The appearance of one or more new lesions may be considered progression.) • Stable Disease—Neither sufficient shrinkage to qualify for PR nor sufficient increase to qualify for PD, taking as reference the smallest sum of diameters while on study.
The study disclosed below is a randomized, open-label, multi-center, global, clinical study to assess the efficacy and safety of durvalumab monotherapy and durvalumab plus tremelimumab combination therapy versus sorafenib in the treatment of immune checkpoint inhibitor-naïve patients with HCC who progressed on, were intolerant to, or refused sorafenib. In the foregoing disclosure, a flat-dose regimen of 1500 mg (approximately equivalent to 20 mg/kg) of durvalumab plus 300 mg (equivalent to 4 mg/kg) of tremelimumab was used in this study.
The study population included patients 18 years of age or older with advanced HCC, Barcelona Clinic Liver Cancer Stage B (not eligible for locoregional therapy) or stage C, and Child-Pugh A classification liver disease. Patients must not have received any prior systemic therapy for HCC. Patients were stratified according to macrovascular invasion (yes versus no), etiology of liver disease (hepatitis B virus [confirmed HBV] versus hepatitis C virus [confirmed HCV] versus others), and performance status (Eastern Cooperative Oncology Group [ECOG] 0 versus 1).
A total of 332 patients were enrolled (T300+D, n=75; durvalumab, n=104; tremelimumab, n=69; T75+D, n=84). Patients were randomized in an equal ratio to groups treated with durvalumab 1500 mg monotherapy (D), tremelimumab 750 mg monotherapy (T), combination therapy with durvalumab 1500 mg plus tremelimumab 75 mg×4 doses (T75+D) followed by durvalumab Q4W, combination therapy with durvalumab 1500 mg plus tremelimumab 300 mg×1 dose (T 300+D) followed by durvalumab Q4W. Upon closure to further enrollment into the T75+D arm, patients were randomized in an equal ratio to groups treated with D, T300+D, and Sorafenib. Durvalumab and tremelimumab were administered via intravenous (IV) infusion every 4 weeks (Q4W). Sorafenib was administered orally BID (see FIGS. 3 and 4).
(§1) Tremelimumab 750 mg via IV infusion Q4W starting at Week 0 for seven doses and then Q12W until confirmed PD, unacceptable toxicity, or any discontinuation criterion was met. (Note: If a patient's weight decreased to ≤30 kg, the patient received weight-based dosing of tremelimumab 10 mg/kg Q4W, until the weight increased to >30 kg, at which point the patient received the flat dose of tremelimumab 750 mg Q4W).
as §1, with “• Durvalumab 1500” for “Tremelimumab 750”, “0” for “0 for seven doses and then Q12W”, “durvalumab 20” for “tremelimumab 10”, “durvalumab 1500” for “tremelimumab 750”, “Q4W.) […]” for “Q4W).”

[2] = system: peripheral blood T cell receptors (T-cell clones); assay: Molecular analysis of peripheral blood T cell receptors (TCR clonality, immunoSeq) on day 29; type: in vivo, human patients; conditions: for Median expanded T cell clones at Day 29, n: Day 29, first cycle of Q4W dosing, immunoSeq paired samples
Source text: This trend was not seen with monotherapy D or the lower dose T combination (T75+D) (FIG. 15). Additionally, greater clonal expansion of T-cells was associated with better OS and seen in D+T combination arms (FIG. 16).

[3] = system: proliferating CD8+ Ki67+ T cells; assay: Exposure-response model: tremelimumab trough concentration vs change from baseline of CD8+ Ki67+ T cell counts; type: in vivo, patients with uHCC
Procedure: (§2) Finally, an exposure-response model was developed to describe the relationship between tremelimumab exposure and proliferating CD8+ Ki67+ T cells in patients with uHCC. Relationships between tremelimumab trough concentration after the first dose (Cmin) and the maximum change from baseline (CFB) for CD8+ Ki67+ T cell counts were evaluated using linear and non-linear regression models. Covariate effects were evaluated on the model intercept and the drug effect (Emax) using a stepwise search approach. The relationship between CD8+Ki67+ T cell count CFB and tremelimumab trough concentration was best described by an Emax model. The only statistically significant and well estimated covariate effect was the baseline CD8+ Ki67+ T cell count on Emax. The maximum effect was higher in patients with lower baseline CD8+ Ki67+ T cell counts and lower in patients with higher baseline CD8+ Ki67+ T cell counts. At the 10th, median, and 90th percentiles of baseline CD8+(3, 9, and 25 cells/uL), the maximum effect is 593%, 341%, and 77.9% change from baseline, respectively.

[4] = Tremelimumab trough concentration after the first dose (Cmin); type: in vivo, patients with uHCC; conditions: 300 mg tremelimumab
Procedure: as §2

Molecule | ORR, % [1] | Median (95% CI) OS, mo [1] | Median PFS (95% CI) [1] | clonal expansion of T cells in responders compared to non-responders ([2]; Day 29 (FIG. 15)) | Median expanded T cell clones at Day 29, n [2] | maximum effect (Emax), change from baseline of CD8+ Ki67+ T cell count ([3]; 10th percentile of baseline CD8+ (3 cells/uL)) | maximum effect (Emax), change from baseline of CD8+ Ki67+ T cell count ([3]; 90th percentile of baseline CD8+ (25 cells/uL)) | estimated half-maximal effective concentration (EC50) ([3]; Emax model, CD8+Ki67+ T cell count change from baseline vs tremelimumab Cmin) | maximum effect (Emax), change from baseline of CD8+ Ki67+ T cell count ([3]; median baseline CD8+ (9 cells/uL)) | median Cmin (trough concentration after the first dose) [4]
durvalumab: human monoclonal antibody directed against human PD-L1; in Example 2 given as 1500 mg monotherapy Q4W (D) | 10.6% | 13.6 mo | 2.07 (1.84-2.83) months | not seen | 32 (13, 46) | – | – | – | – | –
B1 | 7.2% | 15.1 mo | 2.69 (1.87-5.29) months | – | 100 (50, 160) | 593% | 77.9% | 5.24 µg/mL | 341% | 12900 ng/mL
